Measured values as given in doi:10.1101/2023.08.08.552318.

Target: Hemiselmis andersenii phycobiliprotein α subunit Haα^OB1 (open-braced form) (Hemiselmis andersenii)
Experiment: crystal structure

stoichiometry N: 2
Substance: Hemiselmis andersenii phycobiliprotein α subunit Haα^OB1 (open-braced form) (natural protein)
